Where two headings read alike, the source gives them in different places.
What was measured:
Experiment in all cases: cell-based or functional assay
[1] = target: T1, human prolactin receptor (PRLR) (human, UniProt P16471 25-622)
T1 sequence: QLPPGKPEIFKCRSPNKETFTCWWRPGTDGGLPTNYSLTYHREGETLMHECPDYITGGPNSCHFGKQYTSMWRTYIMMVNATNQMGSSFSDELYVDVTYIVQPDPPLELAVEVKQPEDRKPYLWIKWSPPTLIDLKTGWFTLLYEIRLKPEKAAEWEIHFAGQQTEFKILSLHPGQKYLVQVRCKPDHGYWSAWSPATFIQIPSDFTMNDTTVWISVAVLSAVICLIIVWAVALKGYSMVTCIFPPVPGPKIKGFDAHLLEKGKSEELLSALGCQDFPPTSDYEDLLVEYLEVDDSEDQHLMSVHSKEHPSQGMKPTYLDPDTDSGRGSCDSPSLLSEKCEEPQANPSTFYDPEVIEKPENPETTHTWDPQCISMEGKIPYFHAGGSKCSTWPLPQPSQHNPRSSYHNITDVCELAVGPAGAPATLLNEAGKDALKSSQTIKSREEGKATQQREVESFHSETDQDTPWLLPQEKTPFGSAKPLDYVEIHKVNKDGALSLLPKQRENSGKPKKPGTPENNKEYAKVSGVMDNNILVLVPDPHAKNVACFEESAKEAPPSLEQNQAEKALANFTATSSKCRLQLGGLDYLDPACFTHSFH

[2] = target: T1, human prolactin receptor (PRLR); remark: listed apart in the source
[3] = target: T1, human prolactin receptor (PRLR); remark: listed apart in the source

B1: H1H6765P-mc-VC-PAB-MMAE (antibody, human IgG1, V domains shown)
VH: EVQLVESGGGVVRPGGSLRLSCVGSGFSFDDHGMNWVRQGPGKGLEWVSGFNWNGGSTNYAESVKGRFTISRDNARNSLFLQMNSLRAEDTALYYCVRGRSGWFNDAFDVWGPGTMVTVSS
VL: EIVLTQSPGTLSLSPGERATLSCRASQTINSNYLAWYRQKPGQTPRLLIYGTSSRATGIPDRFSGSGSGTDFSLTISRLEPEDFAVFYCQQYAGLPTFGPGTKVDIK
modifications: MMAE conjugated through cleavable mc-vc-PAB linker; attachment residues not stated
% Kill, MCF7/ATCC cells [1]: 38% | % Kill, MCF7/PRLR cells [1]: 86% | % Kill, PC3/hPRLR cells [1]: 85% | IC50, cell viability, MCF7/ATCC cells [1]: 150 nM | IC50, cell viability, MCF7/PRLR cells [1]: 0.2 nM | IC50, cell viability, PC3/hPRLR cells [1]: 0.4 nM | % Kill, MCF7/ATCC cells [2]: 40% | % Kill, MCF7/PRLR cells [2]: 90% | IC50, cell viability, MCF7/ATCC cells [2]: 150 nM | IC50, cell viability, MCF7/PRLR cells [2]: 0.2 nM | % Kill, T47D cells [3]: 90% | IC50, cell viability, T47D cells [3]: 1 nM

B2: H1H6782P-mc-VC-PAB-MMD (antibody, human IgG1, V domains shown)
VH: EVQLVESGGGLVQPGRSLRLSCAASGFTFDDYAMHWVRQAPGKGLEWVSGIIWNSGHIGYGDSVKGRFTISRDNAKKSLYLQMNSLRAEDTALYYCARDSGRYQSYFDYWGQGTLVTVSS
VL: DIQMTQSPSTLSASVGDRVTITCRASHIISSWLAWYQQKPGKAPKVLIFKASSLESGVPSRFSGSGSGTEFTLTISSLQPDDFATYYCQQYNTYSRTFGQGTKVEIK
modifications: MMD conjugated through mc-VC-PAB linker; attachment residues not stated
% Kill, MCF7/ATCC cells [2]: 50% | % Kill, MCF7/PRLR cells [2]: 90% | IC50, cell viability, MCF7/ATCC cells [2]: 200 nM | IC50, cell viability, MCF7/PRLR cells [2]: 0.3 nM | % Kill, T47D cells [3]: 90% | IC50, cell viability, T47D cells [3]: 2 nM

B3: H1H6782P-mc-VC-PAB-MeNHC3-May (antibody, human IgG1, V domains shown)
VH: EVQLVESGGGLVQPGRSLRLSCAASGFTFDDYAMHWVRQAPGKGLEWVSGIIWNSGHIGYGDSVKGRFTISRDNAKKSLYLQMNSLRAEDTALYYCARDSGRYQSYFDYWGQGTLVTVSS
VL: DIQMTQSPSTLSASVGDRVTITCRASHIISSWLAWYQQKPGKAPKVLIFKASSLESGVPSRFSGSGSGTEFTLTISSLQPDDFATYYCQQYNTYSRTFGQGTKVEIK
modifications: MeNHC3-May conjugated through mc-VC-PAB linker; attachment residues not stated
% Kill, MCF7/ATCC cells [2]: 50% | % Kill, MCF7/PRLR cells [2]: 80% | IC50, cell viability, MCF7/ATCC cells [2]: 250 nM | IC50, cell viability, MCF7/PRLR cells [2]: 0.2 nM | % Kill, T47D cells [3]: 90% | IC50, cell viability, T47D cells [3]: 2 nM

B4: H1H6958N2-mc-VC-PAB-MMAE (antibody, human IgG1, V domains shown)
VH: QVQLVESGGGVVQPGRSLRLSCGASGFTFRNYGMQWVRQGPGKGLEWVTLISFDGNDKYYADSVKGRFTISRDNSKNTLFLQMNSLRTEDTAVYYCARGGDFDYWGQGTLVTVSS
VL: DIQMTQSPSSLSASVGDRVTITCRASQDIRKDLGWYQQKPGKAPKRLIYAASSLHSGVPSRFSGSGSGTEFTLTISSLQPEDFATYYCLQHNSYPMYTFGQGTKLEIK
modifications: MMAE conjugated through cleavable mc-vc-PAB linker; attachment residues not stated
% Kill, MCF7/ATCC cells [1]: 53% | % Kill, MCF7/PRLR cells [1]: 88% | % Kill, PC3/hPRLR cells [1]: 82% | IC50, cell viability, MCF7/ATCC cells [1]: 150 nM | IC50, cell viability, MCF7/PRLR cells [1]: 0.2 nM | IC50, cell viability, PC3/hPRLR cells [1]: 0.5 nM | % Kill, MCF7/ATCC cells [2]: 50% | % Kill, MCF7/PRLR cells [2]: 90% | IC50, cell viability, MCF7/ATCC cells [2]: 150 nM | IC50, cell viability, MCF7/PRLR cells [2]: 0.2 nM | % Kill, T47D cells [3]: 90% | IC50, cell viability, T47D cells [3]: 1 nM

B5: H1H6958N2-SPDB-DM4 (antibody, human IgG1, V domains shown)
VH: QVQLVESGGGVVQPGRSLRLSCGASGFTFRNYGMQWVRQGPGKGLEWVTLISFDGNDKYYADSVKGRFTISRDNSKNTLFLQMNSLRTEDTAVYYCARGGDFDYWGQGTLVTVSS
VL: DIQMTQSPSSLSASVGDRVTITCRASQDIRKDLGWYQQKPGKAPKRLIYAASSLHSGVPSRFSGSGSGTEFTLTISSLQPEDFATYYCLQHNSYPMYTFGQGTKLEIK
modifications: DM4 conjugated through SPDB linker; attachment residues not stated
% Kill, MCF7/ATCC cells [2]: 80% | % Kill, MCF7/PRLR cells [2]: 90% | IC50, cell viability, MCF7/ATCC cells [2]: 25 nM | IC50, cell viability, MCF7/PRLR cells [2]: 0.8 nM | % Kill, T47D cells [3]: 100% | IC50, cell viability, T47D cells [3]: 1 nM

B6: H1H6953N-mc-VC-PAB-MMAE (antibody, human IgG1, V domains shown)
VH: EVQLLESGGGLVQPGGTLRLSCAASGFTFSAYAMSWVRQAPGKGLEWVSSINVRAGDTYYADSVKGRFTISRDNSKNTLFLLMNSLRAEDTAAYYCAKARYSSNWGFDFWGQGTLVTVSS
VL: DIVMTQSPDSLTVSLGARTTINCQSSQTILHSSNNHNYLAWYQQKPGLPPKLLIYWSSTRESGVPDRFSGSGSGTDFTLTISSLQAEDVAIYYCQQYSNTPYTFGQGTKLEIN
modifications: MMAE conjugated through cleavable mc-vc-PAB linker; attachment residues not stated
% Kill, MCF7/ATCC cells [1]: 42% | % Kill, MCF7/PRLR cells [1]: 85% | % Kill, PC3/hPRLR cells [1]: 80% | IC50, cell viability, MCF7/ATCC cells [1]: 150 nM | IC50, cell viability, MCF7/PRLR cells [1]: 0.1 nM | IC50, cell viability, PC3/hPRLR cells [1]: 0.2 nM | % Kill, MCF7/ATCC cells [2]: 40% | % Kill, MCF7/PRLR cells [2]: 85% | IC50, cell viability, MCF7/ATCC cells [2]: 150 nM | IC50, cell viability, MCF7/PRLR cells [2]: 0.1 nM | % Kill, T47D cells [3]: 80% | IC50, cell viability, T47D cells [3]: 1 nM

B7: H1H6953N-mc-VC-PAB-MeNHC3-May (antibody, human IgG1, V domains shown)
VH: EVQLLESGGGLVQPGGTLRLSCAASGFTFSAYAMSWVRQAPGKGLEWVSSINVRAGDTYYADSVKGRFTISRDNSKNTLFLLMNSLRAEDTAAYYCAKARYSSNWGFDFWGQGTLVTVSS
VL: DIVMTQSPDSLTVSLGARTTINCQSSQTILHSSNNHNYLAWYQQKPGLPPKLLIYWSSTRESGVPDRFSGSGSGTDFTLTISSLQAEDVAIYYCQQYSNTPYTFGQGTKLEIN
modifications: MeNHC3-May conjugated through mc-VC-PAB linker; attachment residues not stated
% Kill, MCF7/ATCC cells [2]: 60% | % Kill, MCF7/PRLR cells [2]: 80% | IC50, cell viability, MCF7/ATCC cells [2]: 150 nM | IC50, cell viability, MCF7/PRLR cells [2]: 0.2 nM | % Kill, T47D cells [3]: 90% | IC50, cell viability, T47D cells [3]: 1 nM

B8: H1H6953N-mc-VC-PAB-MMD (antibody, human IgG1, V domains shown)
VH: EVQLLESGGGLVQPGGTLRLSCAASGFTFSAYAMSWVRQAPGKGLEWVSSINVRAGDTYYADSVKGRFTISRDNSKNTLFLLMNSLRAEDTAAYYCAKARYSSNWGFDFWGQGTLVTVSS
VL: DIVMTQSPDSLTVSLGARTTINCQSSQTILHSSNNHNYLAWYQQKPGLPPKLLIYWSSTRESGVPDRFSGSGSGTDFTLTISSLQAEDVAIYYCQQYSNTPYTFGQGTKLEIN
modifications: MMD conjugated through mc-VC-PAB linker; attachment residues not stated
% Kill, MCF7/ATCC cells [2]: 50% | % Kill, MCF7/PRLR cells [2]: 90% | IC50, cell viability, MCF7/ATCC cells [2]: 300 nM | IC50, cell viability, MCF7/PRLR cells [2]: 0.2 nM | % Kill, T47D cells [3]: 90% | IC50, cell viability, T47D cells [3]: 1 nM

B9: H1H6975P-mc-VC-PAB-MMD (antibody, human IgG1, V domains shown)
VH: EVHLVESGGGLVQPGGSLRLSCAASGFTFSSYEMNWVRQTPGKGLEWISHISSRSVIIYYADSVKGRFTISRDNAKNSLFLQMNSLRAEDTAVYFCAGITIFGIPEYWGQGTLVTVSS
VL: EIVLTQSPATLSLSPGERATLSCRASQSVSSYFAWYQQKPGQAPRLLIYDASSRATGIPTRFSGSGSGTDFTLTISSLEPEDFAVYYCQQRSSWPITFGQGTRLEIK
modifications: MMD conjugated through mc-VC-PAB linker; attachment residues not stated
% Kill, MCF7/ATCC cells [2]: 50% | % Kill, MCF7/PRLR cells [2]: 90% | IC50, cell viability, MCF7/ATCC cells [2]: 150 nM | IC50, cell viability, MCF7/PRLR cells [2]: 0.2 nM | % Kill, T47D cells [3]: 90% | IC50, cell viability, T47D cells [3]: 3 nM

— patent publication US20180185504A1 (Regeneron, published 2018)
